Laboratory results reported in patent US20220041658A1 (PROTAGONIST THERAPEUTICS, published 2022).
Each block holds one binder with its values, some of them ahead of it. Starred links: 1 amine or outer side, 2 acyl side, 3 side chain; linkers in the order of their positions; H or OH if unused. Positions of bridges follow the written chain, without caps; N, C: chain ends. Non-standard residues stand in square brackets, D forms with d. Trp(6-Et) = 6-ethyl-tryptophan, CCc1ccc2c(C[C@H](N[*:1])C(=O)[*:2])c[nH]c2c1; Trp(7-Me) = Cc1cccc2c(C[C@H](N)C(=O)O)c[nH]c12; 2Nal = N[C@@H](Cc1ccc2ccccc2c1)C(=O)O; AEF = NCCOc1ccc(C[C@H](N)C(=O)O)cc1; Pen = CC(C)(S)[C@H](N)C(=O)O; hLeu = CC(C)CC[C@H](N)C(=O)O; αMeK = C[C@](N)(CCCCN)C(=O)O; Abu = CC[C@H](N)C(=O)O

Experiments:
[1] = target: T1, interleukin-23 receptor (IL-23R) (human, UniProt Q5VWK5 24-629); assay: cell-based or functional assay
T1 sequence (looked up): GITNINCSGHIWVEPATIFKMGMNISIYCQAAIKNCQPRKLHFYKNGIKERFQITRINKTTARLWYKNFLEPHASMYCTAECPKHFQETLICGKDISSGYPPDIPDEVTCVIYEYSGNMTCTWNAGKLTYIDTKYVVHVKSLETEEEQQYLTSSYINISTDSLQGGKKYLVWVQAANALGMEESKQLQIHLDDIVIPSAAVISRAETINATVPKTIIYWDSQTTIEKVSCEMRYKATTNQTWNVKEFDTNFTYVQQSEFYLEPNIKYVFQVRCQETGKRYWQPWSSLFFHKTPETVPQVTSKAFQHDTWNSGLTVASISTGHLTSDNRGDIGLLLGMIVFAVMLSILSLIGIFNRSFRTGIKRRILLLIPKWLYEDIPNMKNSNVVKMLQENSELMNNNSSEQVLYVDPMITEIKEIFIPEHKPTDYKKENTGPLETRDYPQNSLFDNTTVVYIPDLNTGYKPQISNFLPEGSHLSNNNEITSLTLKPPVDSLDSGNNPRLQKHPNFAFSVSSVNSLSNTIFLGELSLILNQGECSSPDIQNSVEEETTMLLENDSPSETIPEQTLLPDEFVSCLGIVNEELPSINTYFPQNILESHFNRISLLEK

[2] = target: T1, interleukin-23 receptor (IL-23R); assay: cell-based or functional assay; remark: listed apart in the source

B4: Peptide of SEQ ID NO: 201 (peptide)
peptide: XNTXQXXXXKNX
modifications: Ac-[Pen]-NT-[W(7-Me)]-Q-[Pen]-Phe[4-(2-aminoethoxy)]-[2-Nal]-[a-MeLeu]-[Lys(Ac)]-N-[bA]-NH2; Pen-Pen disulfide
pStat3 HTRF IC50 [1]: 1.05 nM | NK Cell Assay IC50 [2]: 3.06 nM

B5: Peptide of SEQ ID NO: 315 (peptide)
peptide: XNTXXXXXXKNL
modifications: Ac-[Pen]-N-T-[W(7-Me)]-[Lys(IVA)]-[Pen]-Phe[4-(2-aminoethoxy)]-[2-Nal]-[a-MeLys]-[Lys(Ac)]-N-[(D)Leu]-NH2; Pen-Pen disulfide
pStat3 HTRF IC50 [1]: 1.41 nM

B6: Peptide of SEQ ID NO: 324 (peptide)
peptide: Ac-[dR][Abu]QT[Trp(7-Me)]K(Ac)C[AEF][2Nal][αMeK]K(Ac)N[dK]-NH2
modifications: thioether 2-7 (inferred)
pStat3 HTRF IC50 [1]: 27 nM | NK Cell Assay IC50 [2]: 9.35 nM

B7: Peptide of SEQ ID NO: 317 (peptide)
peptide: XNTXXXXXXKNL
modifications: Ac-[Pen]-N-T-[W(7-Me)]-[Lys(octanoic)]-[Pen]-Phe[4-(2-aminoethoxy)]-[2-Nal]-[a-MeLys]-[Lys(Ac)]-N-[(D)Leu]-NH2; Pen-Pen disulfide
pStat3 HTRF IC50 [1]: 13 nM

B10: Peptide of SEQ ID NO: 296 (peptide)
peptide: XNTXQXXXXKNK
modifications: Ac-[Pen]-N-T-[W(5-CN)]-Q-[Pen]-Phe[4-(2-aminoethoxy)]-[2-Nal]-[a-MeLys]-[Lys(Ac)]-N-[(D)Lys]-NH2; Pen-Pen disulfide
pStat3 HTRF IC50 [1]: 6.29 nM

B12: Peptide of SEQ ID NO: 293 (peptide)
peptide: Ac-[Pen]NT[Trp(7-Me)]K(Ac)[Pen][His_Bzl][2Nal][αMeK]K(Ac)N[dL]-NH2
modifications: disulfide 1-6 (inferred)
pStat3 HTRF IC50 [1]: 224 nM

B13: Peptide of SEQ ID NO: 214 (peptide)
peptide: XNTXQXXXXKHX
modifications: Ac-[Pen]-NT-[W(7-Me)]-Q-[Pen]-Phe[4-(2-aminoethoxy)]-[2-Nal]-[a-MeLeu]-[Lys(Ac)]-H-[bA]-NH2; Pen-Pen disulfide
pStat3 HTRF IC50 [1]: 1.53 nM | NK Cell Assay IC50 [2]: 6.3 nM

B14: Peptide of SEQ ID NO: 213 (peptide)
peptide: XNTXQXXXXKFX
modifications: Ac-[Pen]-NT-[W(7-Me)]-Q-[Pen]-Phe[4-(2-aminoethoxy)]-[2-Nal]-[a-MeLeu]-[Lys(Ac)]-[(D)Phe]-[bA]-NH2; Pen-Pen disulfide
pStat3 HTRF IC50 [1]: 35.5 nM | NK Cell Assay IC50 [2]: 60 nM

B15: Peptide of SEQ ID NO: 288 (peptide)
peptide: XNTXKXXXXKNL
modifications: Ac-[Pen]-N-T-[W(7-OMe)]-[Lys(Ac)]-[Pen]-Phe[4-(2-aminoethoxy)]-[2-Nal]-[a-MeLys]-[Lys(Ac)]-N-[(D)Leu]-NH2; Pen-Pen disulfide
pStat3 HTRF IC50 [1]: 1.48 nM

More lines, now with the values ahead:

pStat3 HTRF IC50 [1]: 0.193 nM | NK Cell Assay IC50 [2]: 4.01 nM
B1: Peptide of SEQ ID NO: 356 (peptide)
peptide: XNTXKXXXXXNL
modifications: Ac-[Pen]-N-T-[W(7-Me)]-[Lys(Ac)]-[Pen]-Phe[4-(2-aminoethoxy)]-[2-Nal]-[a-MeLys]-[Lys(IVA)]-N-[(D)Leu]-NH2; Pen-Pen disulfide

pStat3 HTRF IC50 [1]: 4.45 nM | NK Cell Assay IC50 [2]: 12.7 nM
B2: Peptide of SEQ ID NO: 325 (peptide)
peptide: Ac-[dR][Abu]QT[Trp(7-Me)]K(Ac)C[AEF][2Nal][αMeK]K(Ac)N[dL]-NH2
modifications: thioether 2-7 (inferred)

pStat3 HTRF IC50 [1]: 0.456 nM | NK Cell Assay IC50 [2]: 5.34 nM
B3: Peptide of SEQ ID NO: 355 (peptide)
peptide: XNTXKXXXXXNL
modifications: Ac-[Pen]-N-T-[W(7-Me)]-[Lys(Ac)]-[Pen]-Phe[4-(2-aminoethoxy)]-[2-Nal]-[a-MeLys]-[Lys(Ala)]-N-[(D)Leu]-NH2; Pen-Pen disulfide

pStat3 HTRF IC50 [1]: 0.779 nM | NK Cell Assay IC50 [2]: 11.1 nM
B8: Peptide of SEQ ID NO: 337 (peptide)
peptide: Ac-[Pen][hLeu]T[Trp(7-Me)]K(Ac)[Pen][AEF][2Nal][αMeK]K(Ac)N[dL]-NH2
modifications: disulfide 1-6 (inferred)

pStat3 HTRF IC50 [1]: 0.331 nM | NK Cell Assay IC50 [2]: 3.8 nM
B9: Peptide of SEQ ID NO: 357 (peptide)
peptide: XNTXKXXXXXNL
modifications: not fully specified; Ac-[Pen]-N-T-[W(7-Me)]-[Lys(Ac)]-[Pen]-Phe[4-(2-aminoethoxy)]-[2-Nal]-[a-MeLys]-[Lys(cyclohexyl)]-N-[(D)Leu]-NH2; Pen-Pen disulfide

pStat3 HTRF IC50 [1]: 3.03 nM | NK Cell Assay IC50 [2]: 6.3 nM
B11: Peptide of SEQ ID NO: 358 (peptide)
peptide: XNTXKXXXXXNL
modifications: Ac-[Pen]-N-T-[W(7-Me)]-[Lys(Ac)]-[Pen]-Phe[4-(2-aminoethoxy)]-[2-Nal]-[a-MeLys]-[Lys(octanoic)]-N-[(D)Leu]-NH2; Pen-Pen disulfide

pStat3 HTRF IC50 [1]: 0.927 nM | NK Cell Assay IC50 [2]: 3.5 nM
B16: Peptide of SEQ ID NO: 352 (peptide)
peptide: XNTXKXXXXKSK
modifications: Ac-[Pen]-N-T-[W(7-Me)]-[Lys(Ac)]-[Pen]-Phe[4-(2-aminoethoxy)]-[2-Nal]-[a-MeLys]-[Lys(Ac)]-S-[(D)Lys]-NH2; Pen-Pen disulfide

pStat3 HTRF IC50 [1]: 12.7 nM | NK Cell Assay IC50 [2]: 45.5 nM
B17: Peptide of SEQ ID NO: 349 (peptide)
peptide: Ac-[Pen]NT[Trp(6-Et)]K(Ac)[Pen][AEF][2Nal][αMeK]K(Ac)N[dK]-NH2
modifications: disulfide 1-6 (inferred)
